B1: recombinant human prolactin binding protein (rhPRLBP) (receptor, UniProt P16471 25-234, looked up)
chain: QLPPGKPEIFKCRSPNKETFTCWWRPGTDGGLPTNYSLTYHREGETLMHECPDYITGGPNSCHFGKQYTSMWRTYIMMVNATNQMGSSFSDELYVDVTYIVQPDPPLELAVEVKQPEDRKPYLWIKWSPPTLIDLKTGWFTLLYEIRLKPEKAAEWEIHFAGQQTEFKILSLHPGQKYLVQVRCKPDHGYWSAWSPATFIQIPSDFTMND
B2: human prolactin (hPRL) (ligand, UniProt P01236 29-227, looked up)
chain: LPICPGGAARCQVTLRDLFDRAVVLSHYIHNLSSEMFSEFDKRYTHGRGFITKAINSCHTSSLATPEDKEQAQQMNQKDFLSLIVSILRSWNEPLYHLVTEVRGMQEAPEAILSKAVEIEEQTKRLLEGMELIVSQVHPETKENEIYPVWSGLPSLQMADEESRLSAYYNLLHCLRRDSHKIDNYLKLLKCRIIHNNNC
notes: Serum PRL and added hPRL are treated as one molecule; also called serum PRL; plasma PRL

Experiment [1] deals with B2. Description: cell-based or functional assay.
Experiment [2] addresses B1. Description: surface plasmon resonance, various concentrations of rPRLBP; binding site I of PRL; rPRLBP in solution at various concentrations.

As for B1, the “rat Nb2-11C lymphoma cell proliferation (tritiated thymidine uptake), 50 pM hPRL, 0-100 nM rhPRLBP” value in experiment [1] came to 3 fold.

By Kd is commonly meant the constant that tells how readily two partners part at equilibrium. With B2, in experiment [2], the Kd came to 13.4 nM.

The values above are taken from US20020119154A1 (University of Pennsylvania, published 2002).
